Measured values as given in paper PMC10914604, “FacZ is a GpsB-interacting protein that prevents aberrant division-site placement in Staphylococcus aureus” (Nature Microbiology, 2024).

Biological target: T1, N-terminal domain of GpsB (GpsB 1-75) (S. aureus, UniProt Q2FYI5 1-75)
T1 construct: GpsB, S. aureus, amino acids 1-75 (N-terminal domain); source: E. coli BL21 (DE3), purified (Ni-NTA, SUMO protease, second Ni-NTA); not shown: His, N-terminal, cleaved; SUMO, N-terminal, cleaved
T1 sequence (looked up): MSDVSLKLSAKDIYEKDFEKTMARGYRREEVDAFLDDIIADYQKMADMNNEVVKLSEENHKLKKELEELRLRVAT
Test: SEC; GpsB(1-75) at 90 uM mixed with SUMO-FacZ at 30 uM in 500 ul, salt 150-200 mM; Superdex75 Increase 10/300 in 20 mM HEPES pH 7.6, 100 mM NaCl, 1 mM DTT, 0.5 ml/min
Conditions: both partners purified

B1: His-SUMO fusion bearing a 3x concatenation of residues 127-146 of FacZ (native motif NRHYRR) (domain or fragment)
chain: EIADKWQNRHYRRGSANYKAGSAGEIADKWQNRHYRRGSANYKAGSAGEIADKWQNRHYRRGSANYKA
notes: FacZ (factor preventing extra Z-rings), S. aureus, residues 127-146, first of three repeats; linker; FacZ, S. aureus, residues 127-146, second repeat; FacZ, S. aureus, residues 127-146, third repeat; The methods call the stretch 127-145, the results and legends 127-146; also called SUMO-3x-FacZ (127-146); His-SUMO-FacZ_(127-145); source: E. coli BL21 (DE3), purified (Ni-NTA); not shown: His, …
binding result: binds
